# Source: article PMC8655068, “Quantitative proteomic screen identifies annexin A2 as a host target for Salmonella pathogenicity island-2 effectors SopD2 and PipB2” (Scientific Reports, 2021)
# Biological target: T1, recombinant human His6-tagged annexin A2 (human, UniProt P07355 1-339)
# T1 construct: annexin A2, human, recombinant; No catalogue number is printed; also called His6-AnxA2; His6-tagged AnxA2; source: bought: Novus Biologicals
# Assay: pull-down; about 20 µg concentrated culture supernatant (SPI-2 inducing conditions) mixed with 5 µg His6-annexin A2 overnight at 4 °C; Ni-Sepharose beads 2 h at room temperature; four washes in TBS-T (20 mM Tris-HCl, 150 mM NaCl, 0.75% Triton X-100); Western blot with anti-HA and anti-AnxA2; densitometry of 3 blots, with AnxA2 over without AnxA2
# Details: one partner purified
# T1 sequence (P07355 whole entry): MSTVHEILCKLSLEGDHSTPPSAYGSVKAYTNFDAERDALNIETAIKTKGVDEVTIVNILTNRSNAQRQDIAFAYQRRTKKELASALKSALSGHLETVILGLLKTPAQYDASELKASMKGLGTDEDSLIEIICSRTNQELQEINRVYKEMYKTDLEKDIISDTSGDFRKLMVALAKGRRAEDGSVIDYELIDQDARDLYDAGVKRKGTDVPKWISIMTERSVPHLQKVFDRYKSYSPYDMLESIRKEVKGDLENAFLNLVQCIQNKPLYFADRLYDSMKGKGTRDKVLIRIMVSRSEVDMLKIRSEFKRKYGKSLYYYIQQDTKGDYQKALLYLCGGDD
binder,measurement,value
"SopD2-2HA (natural protein, SopD2, T3SS2-secreted effector of Salmonella enterica serovar Typhimurium SL1344, under its native promoter in pACYC184; also called pSopD2-2HA; source: S. Typhimurium SL1344 T3SS2+ ΔsopD2 carrying pSopD2-2HA: translocated into infected HeLa cells, in lysate; secreted under SPI-2 inducing conditions (LPM pH 5.8), concentrated culture supernatant; not shown: 2xHA (tandem HA), C-terminal, kept) MPVTLSFGNRHNYEINHSRLARLMSPDKEEALYMGVWDRFKDCFRTHKKQEVLEVLYTLIHGCERENQAELNVDITGMEKIHAFTQLKEYANPSQQDRFVMRFDMNQTQVLFEIDGKVIDKCNLHRLLNVSENCIFKVMEEDEEELFLKICIKYGEKISRYPELLEGFANKLKDAVNEDDDVKDEVYKLMRSGEDRKMECVEWNGTLTEEEKNKLRCLQMGSFNITTQFFKIGYWELEGEVLFDMVHPTLSYLLQAYKPSLSSDLIETNTMLFSDVLNKDYDDYQNNKREIDAILRRIYRSHNNTLFISEKSSCRNMLI",fold change of effector pulled down with AnxA2 over without AnxA2,12.3 fold
